Data as given in patent publication US20030114404, “Vascular endothelial growth factor (VEGF) nucleic acid ligand complexes” (Gilead Sciences, Inc., published 2003).

Columns and labels:
VEGF165 [1] = target: T1, VEGF165 (Homo sapiens, UniProt P15692-4 P15692-4:27-191); test: filter; 37 C; variable region starts CCCC in table, CGCC in listing; conditions: tags: carrier-free, Sf 21 insect cell expressed, R & D Systems; chain copies: 2 (inferred)
Procedure: (§1) Nucleic Acid Ligands radiolabeled during transcription by incorporation of α-[³²P]-labeled NTPs, or after synthesis using γ-[³²P]-ATP and T4 polynucleotide kinase, were incubated in low concentration (between 20 and 70 pM) with varying concentrations of VEGF or other growth factors at 37° C. for 15 minutes. Incubations were in TBS, PBS, or HEPES-buffered saline (HBS), pH 7.4, with or without the addition of supplemental divalent cations. Samples were passed through prewashed 0.45 μ Type HA filters (Millipore) followed by a 5-10 ml wash with binding buffer. Filters were immersed in scintillant and counted to quantitate the amount of protein-bound RNA retained by each filter. The equilibrium dissociation constant (KD) of Nucleic Acid Ligand binding to a specific protein was calculated from the data points as described in Green et al. (1996) Biochem. 35: 14413-14424.

VEGF164 [2] = target: T2, VEGF164 (Mus musculus, UniProt Q00731-2 Q00731-2:27-190); test: filter; binds equally well to human and murine VEGF; conditions: tags: carrier-free, Sf 21 insect cell expressed, R & D Systems; chain copies: 2 (inferred)
T2 sequence: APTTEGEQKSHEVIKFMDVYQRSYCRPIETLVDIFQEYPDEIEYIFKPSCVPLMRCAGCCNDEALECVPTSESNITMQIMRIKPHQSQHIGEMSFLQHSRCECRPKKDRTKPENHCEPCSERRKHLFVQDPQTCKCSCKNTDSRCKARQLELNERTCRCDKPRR
Procedure: as §1
(§2) VEGF is a highly conserved protein across species, the human VEGF₁₆₅ and mouse VEGF₁₆₄ isoforms showing 88% sequence identity. The truncated, 2′-OMe-substituted ligands bound equally well to human and murine VEGF. […] Heterodimers between VEGF and PIGF have recently been isolated from the supernatants of both normal and tumor-derived cell lines, and such heterodimers show activity in binding to one of two high affinity VEGF receptors and in inducing responses in cultured endothelial cells. […]

VEGF165 [3] = target: T1, VEGF165; test: filter; s.d. 11; text gives 49 pM; 37 C; calcium required; conditions: tags: carrier-free, Sf 21 insect cell expressed, R & D Systems; chain copies: 2 (inferred)
Procedure: as §1
(§3) 2′OH nucleotides are indicated in bold, and 2′OMe nucleotides are indicated in plain text.
Target sequence in this assay (P15692 other isoform, or with tags, fused parts or gaps): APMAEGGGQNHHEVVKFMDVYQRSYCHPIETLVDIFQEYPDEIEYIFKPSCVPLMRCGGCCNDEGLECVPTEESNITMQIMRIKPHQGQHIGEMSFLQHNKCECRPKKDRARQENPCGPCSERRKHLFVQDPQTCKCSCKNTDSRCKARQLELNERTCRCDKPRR

VEGF121 = VEGF121 (Homo sapiens, UniProt P15692-9 P15692-9:27-147); test: filter; no measurable affinity; conditions: tags: carrier-free, E. coli expressed, R & D Systems; chain copies: 2 (inferred)
Sequence of VEGF121 (P15692 other isoform, or with tags, fused parts or gaps): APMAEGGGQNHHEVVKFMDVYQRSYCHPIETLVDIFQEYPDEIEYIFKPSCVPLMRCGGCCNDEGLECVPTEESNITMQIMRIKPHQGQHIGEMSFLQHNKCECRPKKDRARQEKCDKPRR

PlGF = target: T3, PlGF (UniProt P49763-2 P49763-2:19-149); test: filter; no binding to PlGF homodimer; conditions: tags: carrier-free, E. coli expressed, R & D Systems; chain copies: 2 (stated homodimer)
T3 sequence: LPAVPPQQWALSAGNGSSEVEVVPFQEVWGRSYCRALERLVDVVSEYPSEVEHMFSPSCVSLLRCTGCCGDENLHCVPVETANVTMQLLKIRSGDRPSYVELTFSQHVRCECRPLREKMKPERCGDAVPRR
Procedure: as §1
VEGF is a highly conserved protein across species, the human VEGF₁₆₅ and mouse VEGF₁₆₄ isoforms showing 88% sequence identity. The truncated, 2′-OMe-substituted ligands bound equally well to human and murine VEGF. […] Heterodimers between VEGF and PIGF have recently been isolated from the supernatants of both normal and tumor-derived cell lines, and such heterodimers show activity in binding to one of two high affinity VEGF receptors and in inducing responses in cultured endothelial cells. The biological relevance of VEGF/PIGF heterodimers is unknown. […] Alternatively, the structure of the VEGF subunit may be altered by participation in a heterodimer with PIGF with consequent distortion of the Nucleic Acid Ligand binding surface.

VEGF165 [4] = target: T1, VEGF165; test: filter; divalent cations replaced with EGTA; CaCl2 restores binding, MgCl2 does not; conditions: tags: carrier-free, Sf 21 insect cell expressed, R & D Systems; chain copies: 2 (inferred)
Procedure: as §1
Ligands in Families 1 and 2 were selected in the presence of magnesium cations while Family 3 ligands were selected in a buffer containing both magnesium and calcium. Since divalent cations may contribute to RNA/protein interactions through nonspecific or specific stabilization of high affinity RNA structures, we asked whether magnesium and/or calcium were required for the high affinity binding of representative ligands to VEGF.

VEGF165 [5] = target: T1, VEGF165; test: filter; s.d. 36; 37 C; divalent cation independent; conditions: tags: carrier-free, Sf 21 insect cell expressed, R & D Systems; chain copies: 2 (inferred)
Procedure: as §1, §3

VEGF165 [6] = target: T1, VEGF165; test: filter; 37 C; variable region ends GGCT in table, GGGU in listing; conditions: tags: carrier-free, Sf 21 insect cell expressed, R & D Systems; chain copies: 2 (inferred)
Procedure: as §1

VEGF164 [7] = target: T2, VEGF164; test: filter; bound equally well to human and murine VEGF; conditions: tags: carrier-free, Sf21-expressed, R&D Systems; chain copies: 2
Procedure: as §1, §2

VEGF165 [8] = target: T1, VEGF165; test: filter; s.d. 50; 37 C; divalent cation independent; conditions: tags: carrier-free, Sf 21 insect cell expressed, R & D Systems; chain copies: 2 (inferred)
Procedure: as §1, §3

B1: VP30.29 (ssRNA)
RNA: GGGAGGACGAUGCGGCGCCACUUUGGAAGUUAUUGAAUUUCGCGUCAGACGACUCGCCCGA
modifications: 2'-F pyrimidines
- Kd (VEGF165 [1]): 0.007 nM

Binder: CGGAAUCAGUGAAUGCUUAUACAUCCG (ssRNA, 2'-F pyrimidines, 2'-OMe purines except 2'-OH A4, A5) [t44-OMe]
- binding result (VEGF164 [2]): binds
- Kd (VEGF165 [3]): 0.051 nM
- binding result (VEGF121): no binding
- binding result (PlGF): no binding
- Kd (VEGF165 [4]): > 100 nM

Binder: GCGGUAGGAAGAAUUGGAAGCGC (ssRNA, 2'-F pyrimidines, 2'-OMe purines except 2'-OH G4, A6)
- Kd (VEGF165 [5]): 0.067 nM
- binding result (VEGF121): no binding
- binding result (PlGF): no binding

B2: VP40.39 (ssRNA)
RNA: GGGAGGACGAUGCGGCAGUUAAUUAACUUGAGUUGUGAUGUGUGUCGUUAUGGGUCAGACGACUCGCCCGA
modifications: 2'-F pyrimidines
- Kd (VEGF165 [6]): 73 nM

Binder: GCGGUAGGAAGAAUUGGAAGCGC (ssRNA, 2'-F pyrimidines; 2'-OMe purines except 2'-OH G4 and A6)
- binding result (VEGF164 [7]): binds

Binder: GCGAACCGAUGGAAUUUUUGGACGCUCGC (ssRNA, 2'-F pyrimidines, 2'-OMe purines except 2'-OH A5, G20)
- binding result (VEGF121): no binding
- binding result (PlGF): no binding
- Kd (VEGF165 [8]): 0.14 nM

Binder: GCGAACCGAUGGAAUUUUUGGACGCUCGC (ssRNA, 2'-F pyrimidines; 2'-OMe purines except 2'-OH A5 and G20)
- binding result (VEGF164 [7]): binds
